Experiments:
[1] = target: human CD19 on Nalm6 leukemia cells (human) (UniProt P15391); assay: cell-based or functional assay
[2] = target: EGFR on U87 (U87-MG) human glioblastoma cells (human, UniProt P00533 25-1210); assay: cell-based or functional assay

human CD19 on Nalm6 leukemia cells (human), sequence (P15391 20-556): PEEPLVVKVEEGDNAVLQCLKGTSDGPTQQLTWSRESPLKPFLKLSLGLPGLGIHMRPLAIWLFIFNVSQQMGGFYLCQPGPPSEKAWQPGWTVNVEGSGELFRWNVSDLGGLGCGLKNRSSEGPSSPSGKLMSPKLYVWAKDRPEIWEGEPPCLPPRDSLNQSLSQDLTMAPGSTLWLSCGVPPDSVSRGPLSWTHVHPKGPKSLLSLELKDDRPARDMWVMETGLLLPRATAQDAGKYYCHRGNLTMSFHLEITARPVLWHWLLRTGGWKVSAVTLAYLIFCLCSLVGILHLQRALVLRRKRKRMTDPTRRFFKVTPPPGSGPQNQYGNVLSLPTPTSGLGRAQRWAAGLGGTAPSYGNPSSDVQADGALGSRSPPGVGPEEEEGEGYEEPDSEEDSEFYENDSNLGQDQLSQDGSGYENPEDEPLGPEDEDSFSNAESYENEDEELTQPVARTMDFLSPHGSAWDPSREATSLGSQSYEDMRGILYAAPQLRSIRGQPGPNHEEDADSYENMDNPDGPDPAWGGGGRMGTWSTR

## CD19-specific, 4-1BBZ CAR containing the FMC63 scFv
[1]
  CpNA functional activity in supernatant after 24 h co-culture at 10:1 E:T (cleavage-activated fluorescent NA substrate): 4.9 fold
  CpNA functional activity in supernatant after 24 h co-culture with Nalm6 cells at 10:1 E:T: 19.5 mU/ml

B1: 806 CAR (EGFR-specific, 4-1BBZ CAR containing an 806 scFv linked via a CD8alpha hinge and CD8a TM to (other)
VH: DVQLQESGPSLVKPSQSLSLTCTVTGYSITSDFAWNWIRQFPGNKLEWMGYISYSGNTRYNPSLKSRISITRDTSKNQFFLQLNSVTIEDTATYYCVTAGRGFPYWGQGTLVTVSA
VL: DILMTQSPSSMSVSLGDTVSITCHSSQDINSNIGWLQQRPGKSFKGLIYHGTNLDDEVPSRFSGSGSGADYSLTISSLESEDFADYYCVQYAQFPWTFGGGTKLEIKR
[2]
  CpNA levels/activity in supernatant after 24 h co-culture at 10:1 E:T (cleavage-activated fluorescent NA substrate): 2.3 fold

— patent US20240285757A1 (University of Pennsylvania, published 2024)
